Consider four sequences from patent publication US20150291951.

What all share (assay): cell_activity
The subject of data set [1] is ponzr1 right TALEN +231 (pTAL) (synthetic construct (Xanthomonas TALE-FokI)). The note with it: pair with P3; zebrafish larvae.
In data set [2] the test system is crhr1 right TALEN +231 (synthetic construct (Xanthomonas TALE-FokI)). The following applies: pair with P7.
Data set [3] deals with crhr1 right TALEN +63 (synthetic construct (Xanthomonas TALE-FokI)). The following applies: pair with P5, 15 bp spacer; 15-fold over +231.
Data set [4] deals with ponzr1 left TALEN +231 (pTAL) (synthetic construct (Xanthomonas TALE-FokI)). The following applies: pair with P4; zebrafish larvae.
In data set [5] the test system is crhr1 left TALEN +63 (synthetic construct (Xanthomonas TALE-FokI)). The note with it: pair with P6, 15 bp spacer; 15-fold over +231.
Data set [6] concerns crhr1 left TALEN +231 (synthetic construct (Xanthomonas TALE-FokI)). The note with it: pair with P8.

Sequence “ATCAGAACAACAGTCAGAGAT (double strand) [ponzr1 right half-site]” returned an activity (% modification (median)) in data set [1] of 5.

Turning to “CTGCTGCCGACTGGACCCTGAGGT (double strand) [crhr1 right half-site]”, the results for the activity (% modification (median)) in data set [2] and in data set [3] were under 1 and 7, respectively.

“GTGAGCACCCAGCGGACCTCCTCT (double strand) [ponzr1 left half-site]” registered an activity (% modification (median)) in data set [4] of 5.

As for “TGCAACACTGAGCTCTGTAAACCT (double strand) [crhr1 left half-site]”, the values for the activity (% modification (median)) in data set [5] and in data set [6] were 7 and under 1, respectively.
